Experimental data taken from patent publication US20220073643A1 (NANJING GENSCRIPT BIOTECH, published 2022).

Target: T1, human Claudin18.2 (human)
T1 construct: also called CLDN18.2
Test: cell ELISA, Claudin18.2-expressing HEK293T cells
Description: To determine protein binding EC₅₀ by Cell ELISA, 96-well U-bottom microplates were pre-blocked with blocking buffer (5% MPBS, 1×PBS with 5% skim milk) overnight at 4° C. On the next day, the Claudin18.2-expressing HEK293T stable cell line was suspended at 1.5×10⁶ cells/ml in blocking buffer, added to the plate in 100 μl/well and incubated at room temperature for 1 hour.
Raw data were plotted with GraphPad Prism v6.02 software with four parameters, best-fit value program to analyze the EC₅₀.

Binder | EC50
196A12B10 (antibody, V domains shown, mouse hybridoma mAb; also called 196Al2B10) VH: QIQWVQSGPELKKPRETVKISCKASGYTFTDYSMHWVKQAPGKGLKWMGWINSETGEATYADDFRGRFALSLETSATTAFLQINSLKNEDTGTYFCARFYYGNSFASWGQGTTLTVSS VL: DIVMTQFPSSLTVTAGEKVTMTCKSSQSLLNGGNQKNYLTWYQQKPGLPPKLLIYWASTRESGVPDRFTGSGSGTEFTLTISSVQAEDLAVYYCQNNYYFPLTFGAGTKLELK | 1.78 nM
203A6D5 (antibody, V domains shown, mouse hybridoma mAb) VH: QVQLKQSGPGLVQPSQSLSITCTVSGFSLTRYGVHWVRQSPGKGLEWLGVIWSGGNTDYNAAFISRLNIRKDNSKSQVFFKMNSLKPNDTAIYYCARAAYFGNSFDYWGQGTTLTVSS VL: DIVMTQSPSSLPVTAGEKVTMSCKSSQSLLNSGNQKNYLTWYQQKPGQPPKLLIYWASTRDSGVPDRFTGSGSGTDFTLTISSVQAEDLAVYYCQNNYIYPLTFGAGTKLELK | 1.16 nM
262C7C10 (antibody, V domains shown, mouse hybridoma mAb) VH: QAYLQQSGAELVRSGASVKMSCKASGYTFTNYNIHWVKQTPGQGLEWIGYIYPGNGGNYYNQKFKGKATLTADTSSITAYMQISSLTSEDSAVYFCARDYYGNSFAYWGQGTLVTVSA VL: DIVMTQSPSSLTVTAGEKVTMNCKSSQSLLNSGNQKNYLTWYQQKPGQPPKLLIYWASTRESGVPDRFTGSGSGTDFTLTISSVQAEDLAIYYCQNDYYYPLTFGAGTKLELK | 1.77 nM
248G8E8 (antibody, V domains shown, mouse hybridoma mAb) VH: QVQLKESGPGLVAPSQSLSITCTVSGFSLTTYGVSWVRQPPGKGLEWLGVIWGDGSTNYHSTLISRLRISKDKSKSQVFLKLNSLQTDDTATYYCAKAGRGNALDYWGQGTSVTVSS VL: DIVLTQSPSSLTVTAGEKVTMSCKSSQSLLNSGNQKNYLTWYQQKPGQPPKLLIYWASTRESGVPDRFTGSGSGTDFTLTISSVQAEDLAVYYCQNDYSFPLTFGAGTKLELK | 0.56 nM
186G12H3 (antibody, V domains shown, mouse hybridoma mAb) VH: EVMLVESGGGLVKPGGSLKLSCAASRFTLSSYAMSWVRQTPEKRLEWVATISSGGSYTYYFDSVKGRFTISRDTAKNTLNLQMSSLRSEDTAMYYCARLYYGNALDYWGQGTSVTVSS VL: DIVMTQSPSSLTVTAGEKVTVSCKSSQSLLNSGNQKNYLTWYQQKPGQPPKLLIYWASTRESGVPDRFTGSGSGTDFTLTISSVQAEDLAVYYCQNNYIYPLTFGAGTTLELK | 2.21 nM
268D7H9 (antibody, V domains shown, mouse hybridoma mAb) VH: QAYLQQSGAELVRSGASVKMSCKASGYTFTNYNIHWVKQTPGQGLEWIGYIYPGNGGNYYNQKFKGKATLTADTSSSTAYMQISSLTSEDSAVYFCARDYYGNSFAYWGQGTLVTVSA VL: DIAMTQSPSSLTVTAGEKVTMNCKSSQSLLNSGNQKNYLTWYQQKPGQPPKLLIYWASTRESGVPDRFTGSGSGTDFTLTISSVQAEDLAIYYCQNDYYYPLTFGAGTTLELK | ~0.411 nM
266B11F7 (antibody, V domains shown, mouse hybridoma mAb) VH: QVQMKESGPGLVAPSQSLSITCTVSGFSLTTYGVTWVRQPPGKGLEWLGVIWGDGSTNYHSALTSRLRISKDKSKSQVFLKLSSLQTDDTATYYCAKPGRGNALDYWGQGTSVTVSS VL: DIVMTQSPSSLTVTAGEKVTMRCKSSQSLLNSGNQKNYLTWYQQKPGQPPKLLVYWASTRESGVPDRFTGSGSGTDFTLTVSSVQAEDLAVYYCQNDYIFPLTFGAGTKLELK | ~0.397 nM
237D2A4 (antibody, V domains shown, mouse hybridoma mAb) VH: QVQLKESGPGLVAPSQSLSITCTVSGFSLTSYGVSWVRQPPGKGLEWLGVIWGDGSTNYHSTLISRLRISKDKSKSQVFLKLNSLQTDDTATYYCAKAGRGNALDYWGQGTSVTVSS VL: DIVMTQSPSSLTVTAGEKVTMSCKSSQSLLNSGNQKNYLTWYQQKPGQPPKLLIYWASTRESGVPDRFTGSGSGTDFTLTISSVQAEDLAVYYCQNDYSFPLTFGAGTKLELK | 1.9 nM
240A8E7 (antibody, V domains shown, mouse hybridoma mAb) VH: QAYLQQSGAELVRSGASVKMSCKASGYTFTNYNIHWVKQTPGQGLEWIGYIYPGNGDNYYNQKFKGKATLTADTSSSTAYMQISSLTSEDSAVYFCARDYYGNSFAYWGQGTLVTVSA VL: DVVMTQSPSSLTVTAGEKVTMNCKSSQSLLNSGNQKNYLTWYQQKPGQPPKMLIYWASTRESGVPDRFTGSGSGTDFTLTISSVQAEDLAIYYCQNDYYYPFTFGAGTKLELK | 0.646 nM
240F8G2 (antibody, V domains shown, mouse hybridoma mAb) VH: QAYLQQSGAELVRSGASVKMSCKASGYTFTNYNIHWVKQTPGQGLEWIGYIYPGNGGNYYNQKFKGKATLTADTSSSTAYMQISSLTSEDSAVYFCARDYYGNSFAYWGQGTLVTVSA VL: DIVVTQSPSSLTVTAGEKVTMNCKSSQSLLNSGNQKNYLTWYQQKPGQPPKLLIYWASTRESGVPDRFTGSGSGTDFTLTISSVQAEDLAIYYCQNDYYYPLTFGAGTKLELK | 0.88 nM
234B9D4 (antibody, V domains shown, mouse hybridoma mAb) VH: EIQLQQSGPDLMKPGSSVKISCTASGYSFTSYYIHWVKQSHGKTLEWIGYIDPFNGGTRYNQKFEGKAALTVDKSSTTAYMHLTSLTSDDSAVYYCASLRFFTYWGQGTLVTVSA VL: DIVMTQSPSSLTVTAGEKVTMTCKSSQSLLNSGNQENYLTWYQQKPGQPPKLLISRASTRQSGVPDRFTGSGSGTDFTLTISSVQAEDLAVYYCQNDYSYPLTFGAGTKLELK | 4.78 nM
253E4F7 (antibody, V domains shown, mouse hybridoma mAb) VH: EIQLQQSGPELMKPGASVKMSCKASGYSFTSYYIHWVKQSHGKSLEWIGYIDPFNGGTRYNQKFEGKATLTVDKSSTTAYMHLSSLTSEDSTVYYCASLRFLAYWGQGTLVTVSA VL: DIVMTQSPSSLTVTAGEKVTMTCKSSQSLLNSGNQKNYLTWYQQKPGQPPKVLISRASTRQSGVPDRFTGSGSGTDFTLTISSVQAEDLAVYYCQNDYSYPLTFGAGTKLELK | 0.611 nM
263E9F3 (antibody, V domains shown, mouse hybridoma mAb) VH: EIQVQQSGPELMKPGASVKISCRSSGYSFTSYYIHWVKQSRGKSLEWIGYIDPFSGGTRYNQKFEGKATLTVDKSSTTAYMHLSSLTSEDSAVYYCASLRFFAYWGQGTLVTVSA VL: DIVMTQSPSSLTVTAGEKVTMTCKSSQSLLNSGNQENYLTWYQQKPGQPPELLISRASTRQSGVPDRFTGSGSGTDFTLTISSVQTEDLAVYYCQNDYSYPLTFGAGTKLELK | 1.08 nM
248E6A7 (antibody, V domains shown, mouse hybridoma mAb) VH: QAYLQQSGAELVRSGASVKMSCRASGYTFTSHNMHWVKQTPGQGLEWIGYIYPGNGNTYYNQKFKVKATLTADTSSNTAYMQINSLTSEDSAVYFCVRDYYGNSFVYWGQGTLVTVSA VL: DVVMTQSPSSLTEKTGEKVTMTCKSSQSLLNSGNQKNYLAWYQQKPGQPPKLLIYWASTRESGVPDRFIGSGSGTDFTLTISSLQTEDLAVYYCQNNYMYPFTFGAGTKLELK | 0.396 nM
231C11E9 (antibody, V domains shown, mouse hybridoma mAb) VH: EVMLVESGGGLVKPGGSLKLSCAASGFTFNNYVMCWVRQTPEKRLEWVATISSGNFYTYYPDSVKGRFTISRDNAKNTLYLQMSSLRSEDTAIYYCASLGRGNALDNWGQGTSVTVSS VL: DIVMTQSPASLTVTAKEKVTMSCRSSQSLLNSGNQKNYLTWYQQKPGQPPKLLIYWASTRESGVPDRFTGSGSGTDFTLTISSVQAEDLAVYYCQNDYSYPFTFGSGTKLEIK | 1.91 nM
194A2F7 (antibody, V domains shown, mouse hybridoma mAb) VH: QIQLVQSGPELKKPGETVKISCKASGYTFTDYLIHWVKQAPGKGLKWMGWINTETGEPTYADDFKGRFALSLETSASTACLQINNLKNEDTATYFCARIYYGNSFDYWGQGTTLTVSS VL: DIVMTQSPSSLPVTAGEKVTMTCKSSQNLLNSGNQKSYLTWYQQKPGQPPKLLIYWASTRETGVPDRFTGSGSGTDFTLTISSVQAEDLAVYYCQNAYRFPFTFGAGTRLELK | 2.57 nM
